In experiment [1] the target is T1, PD-1 on 293T-PD1 cell surface (human, UniProt Q15116 25-288).
T1 construct: whole, on cells
Briefly: flow cytometry, 293T-PD1 cells; antibody 0.05 nM. As to the method:
(§1) 500 μL of PBSA was added, and the mixture was centrifuged at 5600 rpm for 5 min to remove the supernatant. […] The system was mixed gently and uniformly, and then was incubated on ice for 1 h. Then 500 μL of PBSA was added, and the mixture was centrifuged at 5600 rpm for 5 min to remove the supernatant. […] 500 μL of PBSA was added, and the mixture was centrifuged at 5600 rpm for 5 min to remove the supernatant. At last, 200 μL of PBSA was added to resuspend cell precipitates, and the mixture was transferred to a flow tube for FACSCalibur detection.
Background: A flow cytometer gives signals particle by particle.

The target in experiment [2] is T1, PD-1 on 293T-PD1 cell surface. Put plainly: flow cytometry, 293T-PD1 cells; antibody 0.41 nM. As to the method: as §1
The target is the same in experiment [3]. Put plainly: flow cytometry, 293T-PD1 cells; antibody 33.33 nM. The procedure: as §1
For experiment [4], the target named is T2, PD-1-mFc (human, UniProt Q15116 25-170, limits assumed).
T2 construct: also called human PD-1-mFc
Briefly: ELISA, PD-1-mFc coated. The procedure:
A microplate was coated with PD-1-mFc at 0.5 μg/mL and incubated at 4° C. overnight. Then the microplate coated with antigens was washed once with PBST, and then blocked with a PBS solution containing 1% BSA as blocking solution at 37° C. for 2 h. After blocking, the microplate was washed 3 times with PBST. The microplate containing the test antibodies was incubated at 37° C. for 30 min, and then washed 3 times with PBST. […] After incubation, the plate was washed 4 times with PBST, TMB (Neogen, 308177) was added in the dark for chromogenesis for 5 min, and then a stop solution was added to terminate chromogenic reaction. The microplate was put into a microplate reader immediately, and the OD value of each well in the microplate was read at 450 nm. The data were analyzed and processed by SoftMax Pro 6.2.1,

Experiment [5] concerns the target T1, PD-1 on 293T-PD1 cell surface. Put plainly: flow cytometry, 293T-PD1 cells; antibody 3.70 nM. As to the method:
as §1

Experiment [6] has the same target. Put plainly: flow cytometry, 293T-PD1 cells. As to the method:
as §1

For experiment [7] the target is unchanged. Put plainly: flow cytometry, 293T-PD1 cells; antibody 1.23 nM. The procedure:
as §1

Experiment [8] addresses T2, PD-1-mFc. Briefly: BLI (Fortebio), antibody on AHC sensor, PD-1-mFc 0.6-50 nM, 37 C. As to the method:
The sample dilution buffer was PBST, 0.1% BSA, pH 7.4. The antibody was immobilized on an AHC sensor at a concentration of 5 μg/mL with an immobilization height of about 0.4 nm. The sensor was equilibrated in a buffer for 60 s, and the binding of the immobilized antibody on the sensor to the antigen PD-1-mFc at concentrations of 0.6-50 nM (three-fold dilution) was determined in 120 s. The protein was dissociated in the buffer for 180 s. The detection temperature was 37° C., the detection frequency was 0.3 Hz, and the sample plate shaking rate was 1000 rpm. The data were analyzed by 1:1 model fitting to obtain affinity constants.

Experiment [9] has as its target T1, PD-1 on 293T-PD1 cell surface. Put plainly: flow cytometry, 293T-PD1 cells; antibody 100.00 nM. As to the method:
as §1

For experiment [10] the target is unchanged. Put plainly: flow cytometry, 293T-PD1 cells; antibody 0.14 nM. As to the method:
as §1

A further experiment addresses T3, human NT5E-Biotin (human, UniProt P21589 27-552, limits assumed, biotin label, site not stated).
T3 construct: Captured on streptavidin-coated plates; also called human NTSE-Biotin
T3 sequence (looked up): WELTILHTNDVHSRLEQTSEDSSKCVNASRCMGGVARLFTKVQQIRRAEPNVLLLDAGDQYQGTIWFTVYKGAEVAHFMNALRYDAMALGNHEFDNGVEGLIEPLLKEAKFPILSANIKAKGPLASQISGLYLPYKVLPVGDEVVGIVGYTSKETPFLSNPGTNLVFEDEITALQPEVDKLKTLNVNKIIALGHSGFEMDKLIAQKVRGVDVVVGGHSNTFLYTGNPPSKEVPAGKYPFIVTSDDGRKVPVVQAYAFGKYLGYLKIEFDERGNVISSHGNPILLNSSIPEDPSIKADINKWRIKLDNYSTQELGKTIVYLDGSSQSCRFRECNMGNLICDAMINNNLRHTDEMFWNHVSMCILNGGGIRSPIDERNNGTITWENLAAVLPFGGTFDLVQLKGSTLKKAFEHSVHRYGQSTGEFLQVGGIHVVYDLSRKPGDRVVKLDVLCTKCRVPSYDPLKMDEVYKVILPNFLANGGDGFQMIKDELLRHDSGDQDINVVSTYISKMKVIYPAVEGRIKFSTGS
Briefly: ELISA, NT5E-biotin on streptavidin. The procedure:
A microplate was coated with streptavidin at 2 μg/mL and then incubated at 4° C. overnight. After incubation, the microplate coated with streptavidin was washed once with PBST, and blocked with a PBS solution containing 1% BSA as a microplate blocking solution at 37° C. for 2 h. After blocking, the microplate was washed 3 times with PBST. Then, 0.5 μg/mL antigen human NTSE-Biotin was added and incubated at 37° C. for 30 min. Then, the plate was washed 3 times with PBST. The antibodies serially diluted with PBST solution (the dilution gradients for the antibody are shown in Table 3) were added to wells of the microplate. The microplate containing the test antibodies was incubated at 37° C. for 30 min, and then washed 3 times with PBST. […] After incubation, the plate was washed 4 times with PBST, TMB (Neogen, 308177) was added in the dark for chromogenesis for 5 min, and then a stop solution was added to terminate chromogenic reaction. The microplate was put into a microplate reader immediately, and the OD value of each well in the microplate was read at 450 nm. The data were analyzed and processed by SoftMax Pro 6.2.1.

For experiment [11], the target named is T1, PD-1 on 293T-PD1 cell surface. Put plainly: flow cytometry, 293T-PD1 cells; antibody 11.11 nM. As to the method: as §1
Experiment [12] addresses T4, human PD-1-mFc-biotin (human, UniProt Q15116 25-170, limits assumed, biotin label, site not stated). Put plainly: competitive ELISA, competitor coated PD-L1-mFc; antibody 5 ug/mL diluted 1:3. As to the method: (§2) After incubation, the microplate was blocked with a PBS solution containing 1% BSA at 37° C. for 2 h. After blocking, the plate was washed three times and dried. The antibody was serially diluted to 7 concentrations in a gradient ratio of 1:3 on a dilution plate with 10 μg/mL as the starting concentration, and a blank control was set. […] Then the mixture after reaction was added to the coated microplate, and the microplate was incubated for at 37° C. for 30 min. After incubation, the plate was washed three times with PBST and dried. SA-HRP (KPL, 14-30-00) working solution was added, and the plate was incubated at 37° C. for 30 min. After incubation, the plate was washed four times and patted dry. Then TMB (Neogen, 308177) was added in the dark for chromogenesis for 5 min, and a stop solution was added to terminate chromogenic reaction. Then the microplate was put into a microplate reader immediately, and the OD value of each well in the microplate was read at 450 nm. The data were analyzed and processed by SoftMax Pro 6.2.1.

The target in experiment [13] is T4, human PD-1-mFc-biotin. Briefly: competitive ELISA, blocking of PD-1-mFc-biotin binding to coated PD-L1-mFc. The procedure: as §2

T2 sequence (Q15116 other isoform, or with tags, fused parts or gaps limits assumed): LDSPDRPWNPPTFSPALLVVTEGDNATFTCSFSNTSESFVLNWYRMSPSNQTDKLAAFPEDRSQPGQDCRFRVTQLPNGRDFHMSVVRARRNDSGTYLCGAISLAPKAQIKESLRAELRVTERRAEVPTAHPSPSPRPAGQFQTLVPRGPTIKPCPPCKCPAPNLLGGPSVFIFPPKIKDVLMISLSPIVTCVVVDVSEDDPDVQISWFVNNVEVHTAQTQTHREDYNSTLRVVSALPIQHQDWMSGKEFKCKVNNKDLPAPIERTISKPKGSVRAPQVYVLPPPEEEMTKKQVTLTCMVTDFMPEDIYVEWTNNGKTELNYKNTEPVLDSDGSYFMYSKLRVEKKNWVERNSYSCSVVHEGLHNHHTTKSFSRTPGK
T1 sequence (Q15116 25-288): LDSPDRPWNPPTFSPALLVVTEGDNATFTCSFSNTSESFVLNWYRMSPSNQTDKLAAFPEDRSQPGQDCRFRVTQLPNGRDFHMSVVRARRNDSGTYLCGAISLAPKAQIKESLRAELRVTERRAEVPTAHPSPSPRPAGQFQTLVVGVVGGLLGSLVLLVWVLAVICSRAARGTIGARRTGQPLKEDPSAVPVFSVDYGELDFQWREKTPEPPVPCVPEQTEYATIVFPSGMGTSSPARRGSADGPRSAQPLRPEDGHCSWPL
T4 sequence (Q15116 other isoform, or with tags, fused parts or gaps limits assumed): as the sequence (Q15116 other isoform, or with tags, fused parts or gaps limits assumed) above

B1: 14C12H1L1 (antibody, human IgG1, kappa)
heavy: not shown
light: DIQMTQSPSSMSASVGDRVTFTCRASQDINTYLSWFQQKPGKSPKTLIYRANRLVSGVPSRFSGSGSGQDYTLTISSLQPEDMATYYCLQYDEFPLTFGAGTKLELKRTVAAPSVFIFPPSDEQLKSGTASVVCLLNNFYPREAKVQWKVDNALQSGNSQESVTEQDSKDSTYSLSSTLTLSKADYEKHKVYACEVTHQGLSSPVTKSFNRGEC
notes: Humanized anti-PD-1 IgG1/kappa
The EC50 is the concentration that produces a half-maximal response. The low end stands for an effect from little substance, the high end for a need for much substance. In general, Kd refers to the free concentration of one partner at which half of the binding sites on the other are occupied at equilibrium, for simple one-to-one binding. Read a high Kd as weaker binding. Take B1: the FACS signal in experiment [1] is 35.7; in experiment [2] it was 129; in [3] it was 1170; in experiment [5] it was 975; in experiment [7], 438; in experiment [9], 1500. For the same molecule, in experiment [10], the FACS signal was found to be 57.7. Also, the EC50 in the experiment with PD-1-mFc [4] amounted to 0.033 nM; in experiment [6], 2.11 nM. The same molecule displayed a Kd with PD-1-mFc [8] of 0.164 nM.

B2: P1D7V02R (bispecific antibody, human IgG1, kappa)
heavy: not shown
light: B1 light
notes: Morrison form IgG-scFv
Take B2: the FACS signal in [1] was found to be 23.4; in experiment [2], 108; in experiment [3], 405; in experiment [5], 404; in experiment [11] it was 426; in experiment [7] it was 218. Besides, the figures for the FACS signal in experiment [9] and in experiment [10] were 301 and 43, respectively. The EC50 in the experiment with human NT5E-Biotin was 0.23 nM; in the experiment with PD-1-mFc [4] it was 0.078 nM; in experiment [6], 1.07 nM; with human PD-1-mFc-biotin [13], 1.33 nM. The OD450 with human PD-1-mFc-biotin [12] was 0.051 OD.

(Values after US20230151111A1 (AKESO BIOPHARMA, published 2023).)
